Data taken from publication PMC1894825.

Tested on: Lsr2 (Mycobacterium tuberculosis H37Rv)
Experiment: EMSA

Substance | Kd [nM]
16S rRNA gene 200-bp amplicon | 1000
PiniBAC 227-bp amplicon | 1000
